Test results taken from publication PMC11087511.

Key:
human alpha-thrombin [1] = target: T1, human alpha-thrombin (human, UniProt P00734;P00734 328-363;364-622); test: BLI; kon 3.9e7 M-1s-1, koff 2.1e-3 s-1; DAB moiety binds active site; not given in the material (Methods for BLI and fluorogenic assay are headings only)
thrombin S195A = thrombin S195A (UniProt P00734;P00734 315-363;364-622, S568A); test: X-ray crystallography; 2.2 A; Na+; DAB in S1 pocket, aptamer at exosite 2; not given in the material (Methods for BLI and fluorogenic assay are headings only)
human alpha-thrombin [2] = target: T1, human alpha-thrombin; test: inhibition of fluorogenic peptide cleavage; DAB moiety contributes; max inhibition >99%; not given in the material (Methods for BLI and fluorogenic assay are headings only)
human alpha-thrombin [3] = target: T1, human alpha-thrombin; test: BLI; not given in the material (Methods for BLI and fluorogenic assay are headings only)
human alpha-thrombin [4] = target: T1, human alpha-thrombin; test: inhibition of fluorogenic peptide cleavage; maximum inhibition 30%; not given in the material (Methods for BLI and fluorogenic assay are headings only)
human alpha-thrombin [5] = target: T1, human alpha-thrombin; test: inhibition of fluorogenic peptide cleavage; maximum inhibition 55%; not given in the material (Methods for BLI and fluorogenic assay are headings only)

AAAAAAAAGTCCGTGGTAGGGCAGGTTGGGGTGACT (structured_DNA, 5' C6-dabigatran) [Bio-HD22-7A-DAB]
Kd (human alpha-thrombin [1]): 0.054 nM

AAAAAAAAGTCCGTGGTAGGGCAGGTTGGGGTGACT (structured_DNA, 5' C6-dabigatran) [HD22-7A-DAB]
binding result (thrombin S195A): binds
IC50 (human alpha-thrombin [2]): 0.1 nM

AAAAAAAAGTCCGTAATAAAGCAGGTTAAAATGACT (ssDNA, 5' C6-amine) [Bio-HD23-7A-NH2]
binding result (human alpha-thrombin [3]): no binding

AGTCCGTGGTAGGGCAGGTTGGGGTGACT (structured_DNA) [HD22]
IC50 (human alpha-thrombin [4]): 0.95 nM

AGTCCGTGGTAGGGCAGGTTGGGGTGACT (structured_DNA, 5' C6-dabigatran) [HD22-0A-DAB]
IC50 (human alpha-thrombin [5]): 0.55 nM
